The source of these data is patent US20250304677A1 (VIB VZW, published 2025).

The target of experiment [1] is T1, human folate receptor alpha (hFRα), recombinant protein (human, UniProt P15328 25-233).
T1 construct: Bought recombinant proteins (His-tagged, or biotinylated via Avi-tag, e.g. AcroBiosystems FO1-H82E2, F01-H52H1); also called hFOLR1; huFOLR1
Nature of the experiment: competition AlphaLISA against 2MFR67-Flag3-His6 on human FRα. The procedure:
Secondly, the variants were analysed for the capacity to compete with binding of family 3 VHH 2MFR67 to human FRα in a competition AlphaLISA, which is a homogeneous assay without wash steps. In here, human FRα biotinylated through an Avi-tag ^{∘}FO1-H82E2, AcroBiosystems) is captured on streptavidin coated Alpha Donor beads ^{∘}Perkin Elmer, Cat nr. 6760002), while the 2MFR67 is captured on anti-Flag antibody AlphaLISA acceptor beads ^{∘}Perkin Elmer, Cat nr. AL112C). Binding of 2MFR67 to the FRα leads to an energy transfer from one bead to the other, ultimately producing a fluorescent signal. To each well of white low binding 384-well microtitre plates ^{∘}F-bottom, Greiner Cat nr 781904), 5 μl of serial-diluted VHHs are mixed with 5 μl of 2.5 nM monovalent 2MFR67-Flag3-His6 and 5 μl of 15 nM biotinylated human FRα protein. After an incubation for 1 hour at room temperature, streptavidin coated Alpha Donor beads and anti-Flag AlphaLISA acceptor beads were added to a final concentration of 20 μg/mL each in a final volume of 25 μl for an incubation of 1 hour at room temperature in the dark. Interaction between beads was assessed after illumination at 680 nm and reading at 615 nm of on an Ensight instrument. Curve fitting is done in Graphpad Prism 9.0 using 4PL non-linear regression analysis.

Experiment [2] has as its target T2, mouse folate receptor alpha (mFRα), recombinant protein (mouse, UniProt P35846 25-232).
T2 construct: Bought recombinant proteins (e.g. biotinylated, Acro Biosystems FO1-M82E9); also called mFOLR1; Ms FOLR1
The experiment can be described thus: ELISA on mouse FRα, anti-VHH detection. The essentials:
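An ELISA using anti-VHH detection measured how VHH binding to mouse folate receptor alpha changed with dose. Each EC50 was read from the resulting dose-response curve.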

For experiment [3], the target named is T1, human folate receptor alpha (hFRα), …. Nature of the experiment: BLI, Avi-biotinylated FRα on streptavidin biosensors, VHH 100 nM. The procedure:
(§1) The binding of humanized variants of 2HFO42 was assessed by kinetic binding analysis to mouse and human FRα protein, biotinylated via an Avi-tag, captured on streptavidin biosensors by biolayer interferometry ^{∘}BLI), essentially as described earlier. VHHs were analysed at 100 nM concentration, and off-rates were determined using fitting of 1:1 langmurian interaction. Dissociation constants were compared to 2HFO42^{∘}Q1E, Q5V, Q108L) ^{∘}P101500004) and 2MFR67 ^{∘}Q1E, Q5V, Q108L) ^{∘}P0150000), respectively.
(In general: BLI is a label-free optical method that tracks binding on a fibre tip over time.)

Experiment [4] addresses T2, mouse folate receptor alpha (mFRα), …. Described as above. The procedure: as §1
The target of experiment [5] is T3, human folate receptor alpha expressed on cells (transfected HEK293T, HeLa, MCF7, MDA-MB-231) (human, UniProt P15328 25-234).
T3 construct: HEK293T transiently transfected with human FOLR1; also called native human FRα; cell-expressed human FOLR1
The experiment can be described thus: flow cytometry on HeLa cells, anti-Flag detection. The procedure:
EC₅₀ values are found in Table 9. Detection of VHH cell binding was done through anti-Flag M2 mIgG1 followed by anti-mFc-PE in flow cytometry. Results are depicted as mean fluorescence intensity ^{∘}MFI).
Off-rates of purified variants were determined to human, mouse, and cynomolgus FRα in BLI. In addition, binding of the affinity optimised variants to cell-expressed human FRα on HeLa cells was determined by flow cytometry ^{∘}FIG. 10 B).
A general note: A flow cytometer gives signals particle by particle.

The target in experiment [6] is T1, human folate receptor alpha (hFRα), …. Nature of the experiment: BLI, purified VHH. The essentials:
(§2)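 Off-rates to folate receptor alpha from human, mouse and cynomolgus were measured by biolayer interferometry. The VHH proteins tested were made with a flag3-His6 tag in TG-1 E. coli at 0.5 L scale and isolated from the periplasm on Ni Sepharose FastFlow columns.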

Experiment [7] addresses T2, mouse folate receptor alpha (mFRα), …. Nature of the experiment: BLI, purified VHH. A digest of the protocol: as §2
For experiment [8], the target named is T4, cynomolgus folate receptor alpha, recombinant (cynomolgus, UniProt A0A2K5U044 25-233).
T4 construct: also called cyFOLR1; cynomolgus FRα
The experiment can be described thus: BLI, purified VHH. The essentials:
as §2

Experiment [9] deals with T1, human folate receptor alpha (hFRα), …. Nature of the experiment: BLI, VHH captured by anti-FLAG antibody on mouse Fc biosensors. A digest of the protocol:
(§3)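 Binding kinetics of VHHs to rhesus monkey, mouse and human folate receptor alpha were obtained by biolayer interferometry after capture of the VHHs via an anti-FLAG tag antibody on mouse Fc biosensors. Values for kon, koff and the equilibrium dissociation constant (KD) were fitted to a 1:1 binding model.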

Experiment [10] concerns the target T2, mouse folate receptor alpha (mFRα), …. The experiment is described as above. The essentials:
as §3

The target of experiment [11] is T5, rhesus monkey folate receptor alpha, recombinant (rhesus monkey, UniProt F7BP60 25-233).
T5 construct: also called rhFolR1; rhesus macaque FRα
Described as above. A digest of the protocol:
as §3

For experiment [12], the target named is T2, mouse folate receptor alpha (mFRα), …. Nature of the experiment: BLI tandem binning on mouse FRα; competitor (1st association) 2HFO42. The text has this:
(§4) VHHs that share high sequence identity in the CDR3 region, a VHH family, are derived from the same B-cell lineage and diverged from each other due to somatic hypermutation or affinity maturation. Typically, VHHs from the same family recognize the same epitope on the target, but may differ in other characteristics ^{∘}De Genst et al 2006 PNAS 103:4586-4591; De Gents et al 2005 J Biol Chem 280:14114-14121). To study whether the VHHs from the different families bound different epitopes, epitope binning was performed using a tandem binding approach in BLI. One VHH from each family was allowed to bind to mouse FRα on the biosensor, followed by binding of the second VHH ^{∘}Table 4).
(§5) Competition between VHHs from different complementarity determining region ^{∘}CDR) 3 families was assessed in a tandem binding assay using biolayer interferometry ^{∘}BLI). Streptavidin biosensors were loaded with biotinylated mouse FRα ^{∘}Acro Biosystems, Cat.nr. FO1-M82E9), followed by binding of anti-FRα VHHs ^{∘}VHH in first association). The biosensors were then transferred to a solution containing a second VHH mixed 1:1 with the first VHH ^{∘}VHH in second association). Using the FortéBio Data Analysis Software the absolute additional binding signal for the second association on top of the first association was calculated. The data were normalized per VHH in first association using the following formula: ^{∘}signal-self)/^{∘}maximum-self) with self being the value of the VHH in first association in combination with the same VHH in second association.

For experiment [13] the target is unchanged. The experiment can be described thus: BLI tandem binning on mouse FRα; competitor (1st association) 3MFR60.
Source text: as §4, §5

The target is the same in experiment [14]. Nature of the experiment: BLI tandem binning on mouse FRα; competitor (1st association) 2HFO19.
Source text: as §4, §5

Experiment [15] shares this target. Nature of the experiment: BLI tandem binning on mouse FRα; competitor (1st association) 2MFR32.
Source text: as §4, §5

T1 sequence (P15328 25-233 limits assumed): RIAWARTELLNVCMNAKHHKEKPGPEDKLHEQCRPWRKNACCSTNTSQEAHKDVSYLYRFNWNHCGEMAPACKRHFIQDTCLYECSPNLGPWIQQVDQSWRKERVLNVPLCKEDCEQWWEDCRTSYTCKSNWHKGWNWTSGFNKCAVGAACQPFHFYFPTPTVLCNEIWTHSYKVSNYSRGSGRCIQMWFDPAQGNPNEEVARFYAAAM
T2 sequence (P35846 25-232 limits assumed): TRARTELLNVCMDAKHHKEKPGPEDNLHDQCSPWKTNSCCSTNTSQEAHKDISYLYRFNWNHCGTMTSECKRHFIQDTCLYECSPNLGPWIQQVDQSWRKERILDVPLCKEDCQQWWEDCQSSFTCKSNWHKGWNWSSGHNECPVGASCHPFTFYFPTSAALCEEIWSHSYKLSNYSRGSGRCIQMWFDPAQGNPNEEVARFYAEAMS
T5 sequence (F7BP60 entry or part of it): as the sequence (P15328 25-233 limits assumed) above, with I2T, W4R, R37K, A146P, H171Y counted along it
T3 sequence (P15328 25-234 limits assumed): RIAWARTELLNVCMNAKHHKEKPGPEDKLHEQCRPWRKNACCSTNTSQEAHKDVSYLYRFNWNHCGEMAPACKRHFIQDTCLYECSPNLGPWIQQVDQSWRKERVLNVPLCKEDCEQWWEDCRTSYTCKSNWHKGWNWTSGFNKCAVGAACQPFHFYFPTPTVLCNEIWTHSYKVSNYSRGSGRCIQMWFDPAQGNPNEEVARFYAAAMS
T4 sequence (A0A2K5U044 entry or part of it): as the sequence (P15328 25-233 limits assumed) above, with I2T, W4R, R37K, A146P, H171Y counted along it

B1: P01500002 = h2 variant 2HFO42: 2HF042(Q1E, Q5V, A14P, V40A, L79Y, K83R, K105Q, Q108L)-HIS6 (VHH)
VHH: EVQLVESGGGLVQPGGSLRLSCAASGSGFSGMIMGWYRQAPGKQRELVATVTSHGTTNYADSVKGRFTISRDNAKNTVYLQMNSLRPEDTAVYYCNAHFPGIYWGQGTLVTVSS
notes: Entry includes the tag
With B1, the IC50 (usually the concentration that inhibits the measured activity by half) in experiment [1] was found to be 43.7 nM. Moreover, the EC50 (read off the curve) (as a rule, the concentration at which the effect is half-maximal) in experiment [2] is approximately 5 nM. For the same molecule, the koff (as a rule, the first-order rate constant of dissociation) was determined as 0.0132 s⁻¹ in experiment [3] and 0.00307 s⁻¹ in experiment [4].

B2: P01500004: 2HF042(Q1E, Q5V, Q108L)-HIS6 (VHH)
VHH: EVQLVESGGGLVQAGGSLRLSCAASGSGFSGMIMGWYRQVPGKQRELVATVTSHGTTNYADSVKGRFTISRDNAKNTVLLQMNSLKPEDTAVYYCNAHFPGIYWGKGTLVTVSS
notes: Entry includes the tag; also called 2HFO42 (P01500004); Nb42
Consider B2, for which the IC50 in [1] was 39 nM. Moreover, the 50% effective concentration (EC50 (read off the curve)) in experiment [2] is approximately 4 nM. Further, the dissociation rate constant (koff) in experiment [3] turned out to be 0.0102 s⁻¹; in experiment [4] it was 0.00193 s⁻¹.

B3: P01500008: 2MFR67(Q1E, Q5V, Q108L)-FLAG3-HIS6 (VHH)
VHH: EVQLVESGGGLVQAGGSLRLSCAASGSGFSGMIMGWYRQAPGKQRELVATVTSHGTTNYADSVKGRFTISREDSKNTVLLQMNSLKPEDTAVYYCNAHFPGIYWGKGTLVTVSS
notes: Entry includes the tags; also called 2MFR67-Flag3-His6
With B3, the EC50 (commonly the concentration needed to bring the measured effect to its halfway point) in experiment [5] was 5.6 nM. The molecule also registered an MFI top in [5] of 54900 MFI. Also, the koff in [6] is 0.00282 s⁻¹; in experiment [7], 0.000447 s⁻¹; in [8], 0.000454 s⁻¹; in [9], 0.0031 s⁻¹; in [10], 0.000571 s⁻¹; in experiment [11] it was 0.00434 s⁻¹. In addition, the koff in [3] amounted to 0.00304 s⁻¹; in experiment [4], 0.00042 s⁻¹. The figures for the Kd in experiment [9], in [10] and in experiment [11] were 8.78 nM, 2.52 nM and 13.8 nM, respectively. Also, the kon (usually the rate constant with which the complex forms) in [9] was found to be 353000 M⁻¹ s⁻¹; in experiment [10] it was 227000 M⁻¹ s⁻¹; in [11], 315000 M⁻¹ s⁻¹.

B4: P01500003: 2HF019(Q1E, Q5V, Q108L)-HIS6 (VHH)
VHH: EVQLVESGGGLVQPGGSLRVSCAASGFPFSTVYMSWVRQAPGKGLEWVSGINNDGGVIDYADSVKGRFTISRDNAKNTLYLQLNSLKPEDTALYFCARGRSFVATLSSSLRGQGTLVTVSS
notes: Entry includes the tag; also called 2HFO19 (P01500003); Nb19
For the molecule B4, the IC50 in experiment [1] was 7.55 nM. The results for the koff in [3] and in [4] were 0.00499 s⁻¹ and 0.00052 s⁻¹, respectively.

B5: VHH 2MFR32 (VHH)
VHH: QVQLQESGGGLVQAGGSLRVSCAASGFPFSTVYMSWVRQAPGKGLEWVSGINSNGGVIDYADSVKGRFTISRDNANNTLYLQLNSLKPEDTALYFCAKGRAFVATMPSSLRGQGTQVTVSS
notes: also called 2MF832
In the case of B5, the “normalized additional binding in 2nd association” value turned out to be 100% in experiment [12], 100% in experiment [13], 100% in experiment [14] and 0% in [15].
